Results on one molecule are retold here after US20080003614A1 (University of Texas, published 2008).

In one experiment the target is T1, FADD (UniProt Q13158 1-208, limits assumed).
T1 sequence (looked up): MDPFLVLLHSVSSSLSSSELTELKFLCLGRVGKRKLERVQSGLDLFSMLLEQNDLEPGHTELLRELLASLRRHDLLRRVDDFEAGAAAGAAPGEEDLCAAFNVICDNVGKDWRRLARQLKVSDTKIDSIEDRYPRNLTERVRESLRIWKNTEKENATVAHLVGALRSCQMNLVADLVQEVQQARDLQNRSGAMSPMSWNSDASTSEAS
As to the kind of experiment: co-immunoprecipitation with MAVS antibody, overexpression in HEK293 cells (FIG. 12A).

Another experiment concerns the target T2, RIP1 (UniProt Q13546 1-671, limits assumed).
T2 construct: also called RIPI
T2 sequence (looked up): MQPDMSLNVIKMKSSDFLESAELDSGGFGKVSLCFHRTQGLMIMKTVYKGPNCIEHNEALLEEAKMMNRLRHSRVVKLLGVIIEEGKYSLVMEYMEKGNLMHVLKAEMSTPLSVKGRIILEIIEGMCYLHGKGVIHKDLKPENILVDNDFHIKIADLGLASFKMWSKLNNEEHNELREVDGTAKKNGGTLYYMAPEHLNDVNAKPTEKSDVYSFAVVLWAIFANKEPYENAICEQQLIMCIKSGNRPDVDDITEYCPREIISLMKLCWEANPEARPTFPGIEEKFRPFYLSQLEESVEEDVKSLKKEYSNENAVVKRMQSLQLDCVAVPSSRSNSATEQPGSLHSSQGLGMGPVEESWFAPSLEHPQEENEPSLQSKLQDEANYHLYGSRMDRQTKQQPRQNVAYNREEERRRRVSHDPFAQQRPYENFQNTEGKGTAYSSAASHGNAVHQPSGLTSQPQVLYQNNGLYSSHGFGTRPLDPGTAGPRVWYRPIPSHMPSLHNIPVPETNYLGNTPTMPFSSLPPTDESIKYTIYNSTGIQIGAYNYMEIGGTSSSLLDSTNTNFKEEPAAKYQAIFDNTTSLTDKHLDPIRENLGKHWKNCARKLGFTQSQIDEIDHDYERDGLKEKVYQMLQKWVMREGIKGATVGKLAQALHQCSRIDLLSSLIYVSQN
The description is as above.

Procedure for FADD: (§1) (FIG. 12A) Expression vectors encoding HA-MAVS and the indicated FLAG-tagged proteins were co-transfected into HEK293 cells. 36 hours after transfection, cells were lysed in a buffer containing 0.5% Triton-X100 and 150 mM NaCl, and the proteins associated with MAVS were co-immunoprecipitated with the polyclonal antibodies against MAVS or control IgG. After washing three times with a buffer containing 0.1% Triton-X100 and 150 mM NaCl, the immunoprecipitated beads were resuspended in SDS sample buffer, and the eluted proteins immunoblotted with an antibody against FLAG or HA as indicated. Lysate represents 10% of the starting materials used for immunoprecipitation.
Procedure for RIP1: as §1

B1: HA-MAVS (N-terminal HA-tagged Mitochondrial Anti-Viral Signaling protein) (other)
chain: MPFAEDKTYKYICRNFSNFCNVDVVEILPYLPCLTARDQDRLRATCTLSGNRDTLWHLFNTLQRRPGWVEYFIAALRGCELVDLADEVASVYESYQPRTSDRPPDPLEPPSLPAERPGPPTPAAAHSIPYNSCREKEPSYPMPVQETQAPESPGENSEQALQTLSPRAIPRNPDGGPLESSSDLAALSPLTSSGHQEKDTELGSTHTAGATSSLTPSRGPVSPSVSFQPLARSTPRASRLPGPTGSVVSTGTSFSSSSPGLASAGAAEGKQGAESDQAEPIICSSGAEAPANSLPSKVPTTLMPVNTVALKVPANPASVSTVPSKLPTSSKPPGAVPSNALTNPAPSKLPINSTRAGMVPSKVPTSMVLTKVSASTVPTDGSSRNEETPAAPTPAGATGGSSAWLDSSFENRGLGSELSKPGVLASQVDSPFSGCFEDLAISASTSLGMGPCHGPEENEYKSEGTFGIHVAENPSIQLLEGNPGPPADPDGGPRPQADRKFQEREVPCHRPSPGALWLQVAVTGVLVVTLLVVLYRRRLH
notes: also called KIAA1271; pEF-HA-MAVS; not shown: N-terminal HA tag
Turning to B1, the binding result with FADD and with RIP1 was “no binding” each time.
